Drawing on doi:10.1101/2025.09.29.679187 (bioRxiv, 2025), this text covers Kd for one molecule.

The target in the test is 6xHis-PDE6D (UniProt O43924 1-150). Description: fluorescence polarisation. (In general: Polarisation of emitted light reports the rotation of a fluorescent probe.)
Chain of 6xHis-PDE6D (O43924 whole entry): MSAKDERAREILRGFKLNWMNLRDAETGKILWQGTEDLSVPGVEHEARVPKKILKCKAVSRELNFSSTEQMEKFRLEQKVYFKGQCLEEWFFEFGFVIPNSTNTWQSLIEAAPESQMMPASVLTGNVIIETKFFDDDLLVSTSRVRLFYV

B1: Wild-type K-Ras peptide (FAM-KKKKKKSKTKC-Far-OMe) (peptide)
peptide: KKKKKKSKTKC
modifications: FAM on the N-terminus; C-terminal cysteine farnesylated (Far) and carboxymethylated (OMe)
As for B1, binding was characterised by a dissociation constant (Kd) of 200 nM.
